Substitutions are numbered along the chain they refer to. Bounds are passed on as bounds.

Series [1] has as its target T1, CodY (B. cereus INRA C3) (Bacillus cereus INRA C3) (UniProt Q819X8).
T1 sequence: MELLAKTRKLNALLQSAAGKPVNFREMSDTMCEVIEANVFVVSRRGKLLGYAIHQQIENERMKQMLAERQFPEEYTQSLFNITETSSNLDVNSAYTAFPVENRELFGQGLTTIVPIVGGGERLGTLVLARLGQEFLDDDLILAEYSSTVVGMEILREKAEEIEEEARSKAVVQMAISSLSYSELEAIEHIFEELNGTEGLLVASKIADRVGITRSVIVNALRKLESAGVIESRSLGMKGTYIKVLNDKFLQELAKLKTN
Put plainly: EMSA. In general terms: A gel shift assay detects complexes by their altered migration in electrophoresis.

Series [2] has as its target T2, CodY (B. cytotoxicus CVUAS 2833) (Bacillus cytotoxicus CVUAS 2833) (UniProt A7GRF8).
T2 sequence: T1 sequence with S78N, I82V, A94E, R103K, E104D, Q133R, S147A, Q251H
Put plainly: EMSA.

As for “AAATTATCGATCGTAATCGACAAAATTTTTCTATTTACGCATTAAAAATTTAATGTTTTAATGAACAACATAACTGGTATGACCAGACAGAAAGGATAAGGTTACGCTAATAGGAATTATAGTGAAGTTGTAAGTAACATTATGTTGAAAATATTTTTCGAATAGTCTATTTATTTACAAGAGGTCAAGAATCAAGTTTGTAATAAACGTGTTCTAAGTTTCTGCATAACAAAAGTGAAGTTATTCCGCAATAAAAGTATAAGCGATGTACAGTATAATTTTACCTTTTTTAGTCTAGTAAGGAGTTTGCTGA (double strand) [Phbl-2]”, the Kd in series [1] stood at 250 nM.

In series [1], “AATAATGATATTAGGATGTTTTGTGAAAAAATCAACAATATAACATATATTACTAAATATATCTACATTTTATGCAATTATACATAACTAAATAAAGGTAAAAAAGTATAAAAAGACCTATTATATTATTCTATAAGTATTTTTTCTAAAATAAAATTTCTCGGTTGAGCTAAAATAGTTATTTTTAACCGTATACACATTAATTTGTAATCATTACAATTACAGAAATGAAATTTACGGATAACTATATTTGTATAATTTTTTTCGGTTCATATTTTTATTTAACAGTAAATTATCGATCGTAATC (double strand) [Phbl-1]” displayed a Kd of 700 nM. In series [1], “ATCCGAATTCTGTATATGCTATGCATAATTGCATACGGGGTTAAAAATTATATCAATATAATTTTACCGGTTGTTTGCAAGTAGTGTTTTCTGTTGTGATATGTAGATATTTCAATCGATAAAGTGAATCGGATTATATTTTGAAATAAGGACATGAAAGCTTGAAAATAAAGGGAATGAAAATACTTCTTTACGTTATATAAACAGCTGTGTTTAAATGACCTTACAGTACAAAACTTATATGAAAACAAAACGAAATTTCATATTTACGTATGTTGTTTGGTTTAAAATGAATAATATTTTTATGTAATATATTCACTGTGTGAATGTGGGAATTTCGATGAAATAGAAAATTTATACAATATTATTCATACTAAACACATATGAAAAGTTTTATAACAATAAGTAAGTACTGTAGCAATAACAGTTGGGAGAGATGGTTCATACATAGATCACGGTGAGAACGTTCTCTATTTTAACCATCTCAAATTATGGGCAAGAAAATAGAATAATAAAATGCGATAGTAATAGTTGCTAATACATAGGAGGAGTTAAAGTGGATCCGACT (double strand) [Pnhe INRA C3]” came in with a Kd of 125 nM. In series [1], “CAAGTTTGTAATAAACGTGTTCTAAGTTTCTGCATAACAAAAGTGAAGTTATTCCGCAATAAAAGTATAAGCGATGTACAGTATAATTTTACCTTTTTTAGTCTAGTAAGGAGTTTGCTGATAAAACTAAGAGTAATATTATTAAATTTAAATTAAACAATGTTATGGCAAGATTAACTGTAAGCATTGGTTTATTGATTCTCGCGGTTCTGTAAGTTAAACCGCAATTCTAGGGAAGAATTACACATTTACTATTCATAGGGTGCTTGATTCAAATATAGTTAATAAATTTTTGTTATTTATATTTGAAAAAATAGAGTATCGAAGTGAGAGG (double strand) [Phbl-4]” showed a Kd of 700 nM. Compared with the last substance, the Kd is about 5.6-fold higher.

In the case of PcytK-1, the Kd in series [2] was > 1000 nM. As to PcytK-2, in series [1], the Kd is > 1000 nM. PinhA1 INRA C3 came in with a Kd in series [1] of 250 nM. On the same count and under the same terms, to “TCTAGTAAGGAGTTTGCTGATAAAACTAAGAGTAATATTATTAAATTTAAATTAAACAATGTTATGGCAAGATTAACTGTAAGCATTGGTTTATTGATTCTCGCGGTTCTGTAAGTTAAACCGCAATTCTAGGGAAGAATTACACATTTACTATTCATAGGGTGCTTGATTCAAATATAGTTAATAAATTTTTGTTATTTATATTTGAAAAAATAGAGTATCGAAGTGAGAGGTAAGTAAAATCCTTACATTCTATTAGAAGTAAAAAATAACGATATTATCCTATCTGAAAGATTTCTCCTTCTTAATCAGTTTACAAAGAGAGAGGTCATACAAGTTATATGAATTAAGTTATAAAAACAATGGTAAAGGAGTGTACGGAAT (double strand) [Phbl-3]” belongs 700 nM.

One may read the Kd as a measure of binding affinity in units of concentration. The low end stands for higher affinity, the high end for lower affinity.

For the origin of these results see PMC4877379.
